# Experimental data taken from the DeepSol protein solubility set.
# Test: soluble on expression in E. coli; label from the status in PepcDB or PDB records
row,Sequence,soluble on expression in E. coli
1,MGSDKIHHHHHHVSDLLSQDEIDALLHGVDDVDDDDDLDAASQDARSYDFSSQDRIVRGRMPTLEIVNERFARHLRISMFNMMRRAAEVSINGVQMLKFGEYVHTLFVPTSLNMVRFSPLKGTALITMEARLVFILVDNFFGGDGRFHAKIEGREFTPTERRIVQLLLKIIFEDYKDAWAPVMDVEFDYLDSEVNPAMANIVSPTEVVVINSFHIEVDGGGGDFHITMPYSMIEPIRELLDAGVQSDKQDTDMRWSQALHDEIMDVKVGFDACVVEHELTLKDVMNFKAGDIIPVELPEYIMMKIEDLPTYRCKMGRSRDNLALKIYEKIPRPETVKTELQLVTRKGKARDISEL,not soluble
2,MSLSGKKVIYFIPIVDTGAYWSPMKKAAEDEAKALGYDLVVKTSPPNETQKNEKHIGFLDEAIKNKAAGIAIAPMDPDMFDKKVKEANDKGIPVVTFDADVKTKENRTSYIGTDNKLAGEQLGENGAKALKEKGITKGKIAMAAVNLTQTTMTYRQDGIKSGFEKVMGADAKNFEWLEPIQDNDQSAESKRQLEGQITSNSDMVAVFSLGSEGPDTGVMEAIKSQGKSGSIYHFGFDYTPTWENGVSSNLISGIVDQDSYAIGKTIIDTLDKKIKGEKVDDVYPVPVKWVTPDKIVEYGKEKQKQFTTELKGIITITTDPNSSSVDKLAAALEHHHHHH,soluble
3,MSATGPGIVVIDKPAGMTSHDVVGRCRRIFATRRVGHAGTLDPMATGVLVIGIERATKILGLLTAAPKSYAATIRLGQTTSTEDAEGQVLQSVPAKHLTIEAIDAAMERLRGEIRQVPSSVSAIKVGGRRAYRLARQGRSVQLEARPIRIDRFELLAARRRDQLIDIDVEIDCSSGTYIRALARDLGDALGVGGHVTALRRTRVGRFELDQARSLDDLAERPALSLSLDEACLLMFARRDLTAAEASAAANGRSLPAVGIDGVYAACDADGRVIALLRDEGSRTRSVAVLRPATMHPGGVPRGKLAAALEHHHHHH,soluble
4,MDWNHYRFRSRWPLPAPAPDVYRALERIEDYPRWWPQVREVTRLDDTSGLLRFRSLLPYDLTATVREQRRDPTEGVLEVAMSGDMEGWARWTVAPRGSASLVRYDQEVVVRKPLLRRLAVPGRPLFRANHRLMMRAGRRGLAAHLAGGRQAVLEHHHHHH,soluble
5,MGSDKIHHHHHHMVERALALSELNQSEPVELVSNSKPSYPDLGEAVSVEVLVGWGKEAIAIIRDNYPDVLCNSDWECDVETTRLVNTQGLDCYYSDTTLSCYMSAEWVRGDDFLSVSDGQTQRDYLDPEKLAYQILQRLVWAKENVPPPNGRVPVLFTSKAADMLWGTAQAALNGKRVLEAASPWAERVGKQVIAPSLTLYQDPQAGPYSCPFDDEGTPTKSLVFIEKGILQNYYCDRTTGRQLGNSTTGNGFRPGLGSYPTPGLFNFLIKPGSKSLKDLIQNMDDGLIVDQMLGGSGGISGDFSINIELGYRVQKGQVIGRVKDTMVAGNVYTALKQVELGSDADWNGSCYTPSLIVEGLSTTGRNN,not soluble
6,MGSDKIHHHHHHMNANQFLKAVSQLQGWRECAFLLALAERSFPNYALFADAVGLKTGGKMRQLLDLAWDMLQKDVADAAIPQLLSKLETLCPNVDEYDAYGVYPAFDFCQLLEQALLNRLNPNKHRATEASQLATRTVMDFVEMSEGEGMDENELVRVFEHHPLLKDDKLFQRDTVMALKKQRTPKEAFLAELRAGAANDGVSNLGISLEG,not soluble
7,MMTTSLFNNDDLNQLESKGITPEEAMRQVEALRYGFPYPNIIAPASLENGIMRLDEDDKSAYLLEWDRYLNSPNCNVVKFVPASGAASRMFKDLYNFLDADYNEPTTDAEKAFFAHLTRFAFYDSLNETCLRNAWRTVPKLIASKEYKTVVENLLYPKGLNYGNLPKGLLLFHLYGKETRTPTEEHLAEGALYERSGTRQVKVHFTVSPEHIEEFKNNIDKRQRFLEDEYCIRYEVSFSVQDSSTDTLALTPEGELFRLENGELLFRPGGHGALIRNLQETNADIVFIKNIDNVVPDFLKCDTIIYKKLIAGVLVKAREHIFNYLQLLEKPKVVHAQLMEIVDFLRYNFCIEISNIDLMEDKDLLELLRRKLDRPIRVCGMVRNQGEPGGGPFIIREADGSSSLQILESTQIDMSDPQKRAIFEQGSYFNPVDLVCSLRDYKGEPFNLESFVNPKTAFISEKSKDGRKLLALERPGLWNGAMDDWNTIFIEVPISTFAPVKTVNDLLRPEHQPCQS,soluble
8,AHHHHHHGSFTGKVLIPVKVLKKFENWNEGDMILLEDWKAKELWESGVVEIIDEADKVIGEIDRVLSEEKKNLPLTPIPEGLYEKAEFYIYYLEKYIQEKVDNIETIQTKVTKLANLKKKYKTLKEIRFKKILEAVRLRPNSMEILARLSPAEKRIYLEISKIRREWIGD,not soluble
9,MAEGGGGVGVVYVLENEAYLSKEGGTLKVSRRAGREVLLQKPLIAVEEIVILGNAVVTPALLKHCAQEGVGIHYLSPTGTYYAGLTRTPSKNAPARVAQFKAYLEPTWKLALAQRFVLGKIRNGLVFLRRNGAEGWERLKEALLEAERAQDEEALRGAEGRAADLYFRAFAELLPEEFAFGERSRRPPRDPANSLLSLAYTLLAKECESALLVAGLDPYVGYLHEVRYGRPSLALDLMEEFRSVLADSVVLSLLNNRRVTLEDFDDSEGFPRLRKEAWPKFLRAWEGRLNERIQHPLLGKRLAYREILLAQARILVKHLLGELPRYEPFAVR,soluble
10,MSKIKRVLISVSDKTGIIEFAKELSKYNIEILSTGGTSKTLKDAGINVIDVSEHTQFPEIMNGRVKTLHPLIHGGILADRDNPEHLDAMLKNHIGQIDMVVVNLYPFVNTVKSGADFDTCIENIDIGGPSMVRSCAKNHKHTTIVTNPSQYDLVIKEMAENDGKTTLATRREFAKEAFAHTAEYDSHIANWFSKELDEEYPEKLFSVGTLKQVLRYGENPHQKAAVYSTDADCVSITNARQLQGKELSYNNLNDADGAFEMVCEYSEPSCAIIKHANPCGIASGKNAFEAWTKALACDPISAFGGIVAFNCEVDKEFAESLGKMFLEVIIAPSYTQEALDILAAKKNLRVLETGKVFDTKSSRMISKNIHGGILSQSYDNGGVDINDCKVVTDRAPTDKEWADLMFAWKAVKYVKSNAIVYARDTQTVGIGAGQMSRVDSARIGAEKAQAHQGAKGSAVASDAFFPFADGLEECIKAGATAVIQPGGSKNDQEVIDAANKAGITMVFTNMRHFRH,not soluble
11,MSNDNEVPGSMVIVAQGPDDQYAYEVPPIDSAAVAGNMFGDLIQREIYLQKNIYYPVRSIFEQGTKEKKEINKKVSDQVDGLLKQITQGKREATRQERVDVMSAVLHKMESDLEGYKKTFTKGPFIDYEKQSSLSIYEAWVKIWEKNSWEERKKYPFQQLVRDELERAVAYYKQDSLSEAVKVLRQELNKQKALKEKED,soluble
12,MKQFSGLSRTIQGNHLLDTCAIDILKIGHRPLVLCAKQEYNTTVESFVKVLTCHGLIVKIVYMEEWDQNSVEECGEVGFRHRADHIIGIGNSSVAACTKAVADLLDLPAVLIPTSPFTTLPWVSVENKKRERPLFNESIQLIIADREQLLTQPTSELINGVVNTLLYLAAIKEVKRNHLFSLVDDILIRSFESVLLRGSLQAIEDFEARILSKEVQDVLEVLSTCVTLDLPSDAWDVIQQIESKLSERREDLVDEPLKRNVVLYLLLSYLTQESEEFQARLKWCQQLLLSANSSNLLSLEAVLKEIALEMGEDGSTRC,soluble
13,MSIPLLEYKPSSQNQRVPGYEVPNEDTPRIYRIEDAAYDSELKELIWATYRQVFSEHVILKFFRQGNLESQLKNRAISVRDFVRGLAKSEAFKTLVIKSNSNYRLVELALKRLLGRAPYNKDEEIAWSIKIATNGWDGFVDALLDSEEYQSNFGENIVPYQRRRYKDRPFNLVTPRYGNYWRDKLESERYIEGDIKNFLELAKSIEIKTVTFTPVSTANIKIPDTTRNTTPTGIPISVNPSANFPVRLEHHHHHH,not soluble
14,MGSDKIHHHHHHMTQAITMPDNPGADCIIEAGIVLTGLDAGSGLTGLGADGKMTMRHDVGIRVEKGMIAQIGPMEAVGYGNDHLPRFGSRRMIAMPGLVNAHHHFGVTPLMQGVPFAPLELWLPQFRAMRRIDQRLDTLYSAIEMLESGTTTVQHIHSGFSGTPDSWMQTAEATISAYGEIGMRLGYCFMIRDRNILSYEPDADILSRLPAKLRDWIAPQLAAADIPVPRLMEFYTDLRARFMKGSPQHIRMNLAPANLHWCSDNALQTIFETAKAAGGNVHMHLLETERQAEFARRTYGRSAVQHLQKLQCLDANVTLGHGNWMSGEDLDIIASCGCTICHNASSGLRLGSGIAPVNEMRRRGIPVALGIDQSNIADDRDMTLEMKLVWALHRETGLWNDRPDAGAVLQMASEHGAASAGFGGFTGRLEPGWQADIVLMDKDRIARPAINSRTPPVEALLHRGGRHAIEQVFVGGRLVVDGGRVTTVDRDAVMAEIEAILSRPETDAERYAWQAVETLLPHLESSLQQLGLGAGYRRYRYNSMSDQ,not soluble
15,GMEKKSSYKTVLLGESSVGKSSIVLRLTKDTFHENTNTTIGASFCTYVVNLNDINIKNNSNNEKNNNINSINDDNNVIITNQHNNYNENLCNIKFDIWDTAGQERYASIVPLYYRGATCAIVVFDISNSNTLDRAKTWVNQLKISSNYIIILVANKIDKNKFQVDILEVQKYAQDNNLLFIQTSAKTGTNIKNIFYMLAEEIYKNIIN,soluble
16,MGSDKIHHHHHHMATPADKLAESLAVLKTLRDQGRKALRSEDMGRTHRERLMRNGFIKEVMKGWYIPSRPDEPAGESTSWYASFWVFCASYLESRFGDEWCVSPEQSIHLHTGNWSVPKQLLIRSPKGGNKPTGLLHGTSILDVRLELPPASDTEIKEGMRIYNLPAALVGCSQTQFSAHPTEMRTALTMMQDASELLGRLLAGGHSKIAGWLAGACRSIGRKQIADDILGAMRAAGYTVNENNPFKDQAQIIFSPRETSPYVNRMRMNWASMREDVLHSFPAAPGLPADSAKYLKQVEAVYVNDAYNSLSIEGYKVSAALIEKVRSGNWNPDSNKDDQDHRNALAARGYWQAFQKVRESIGKVLSQENAGTVAESDHAQWYRELFGPSVTAGILKAADLAGYRNSPVYIRRSMHTPPGKEAVRELMPVLFELLQQENEAAVRVVLGHFMFVYIHPYIDGNGRIGRFLMNLMSASGGYSWIVIPLEQRNDYMAALESASVEGDIKPFSTLLANLVSTG,not soluble
17,MEGDVLSGFGDRHNMDGKLLQSFQKSFVDVQDILDQNRLLINEINQNHESKQPDNLGRNVGLIKELNNNIRRVASLYGDLSHSFARSVDASSEGESSGTLKSDGKANQKRFRSGDGSLVPATDEEMLEVKNLLEKNEQDMPVLPDPIQTEEYIPDEGSPSQFLQLENFEGKTYCIHAKTDRISLGLHDKGIYWVTCNVGAINFTPPLKLLQSKEELMNGSQMLFVLPDTKFQISTELSGNVELVPSKVLLQEPILFSSNGCSINQSTDVLNATASPKEPALSTAASKPDFSRVPGEISLANLSIKELQETFRATFGRETTSKDKRWLKRRIKMGLINSCVVPTTTLTINDSKLIGGDQDAIDAFSKGTVDEETATESIDTPASPDGIKGHSNDFGHSPVETFVDHYSGNEDFEGEDGSAKRVRKPTRRYIEETNEKQQIDGSMIPSKDPSSIQAVSSEGRVVVTRMVSLAGSRIQVPYVSHVRRSRPRENIMALGEFRSKSWEVKAAPEEGNLNLSPPQLSNDVNRVPGVKSASRCVQKESDKDHLKPIFTDVDQEMMEPELLDSSGDSSDDNFVDAPITQSASGRKLHRAWTISEVEKLVEGVSKYGVGKWTEIKKLSFSPYTHRTTVDLKDKWRNLQKASSSNRMEGGLKKHGSMAIPTHIMLQVRELAQKQSPISRVVSKARVVKRSRSRNGFL,soluble
